Here are results for three molecules from PMC6943125.

Data set [1] concerns the target T1, DHX30N (human, UniProt Q7L2E3-3 1-152).
T1 sequence: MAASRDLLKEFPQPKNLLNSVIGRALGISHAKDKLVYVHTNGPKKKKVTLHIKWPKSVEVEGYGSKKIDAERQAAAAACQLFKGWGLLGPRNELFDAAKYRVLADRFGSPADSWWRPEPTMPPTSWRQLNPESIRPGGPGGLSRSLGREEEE
In words: fluorescence polarization; 30 nM RNA, pH 6.0 NMR buffer; EMSA: 50 mM Tris-HCl pH 7.5, 150 mM NaCl, 10% glycerol, on ice, 1% agarose 4 C; FP and NMR: pH 6.0 NMR buffer (composition not in material); Ni-NTA: 20 mM Na phosphate pH 6.6, 100 mM NaCl, 20 mM beta-mercaptoethanol, 1% glycerol, room temperature. The conditions noted are these: protein: recombinant.

The target of data set [2] is NS1 RBD (Influenza A virus Ud, UniProt P03495 1-73). As to the kind of experiment: NMR; equimolar dsRNA, pH 6.0 NMR buffer. The conditions noted are these: protein: recombinant; tags: none (SUMO-His6 cleaved); chain copies: 2.
Chain of NS1 RBD (P03495 1-73): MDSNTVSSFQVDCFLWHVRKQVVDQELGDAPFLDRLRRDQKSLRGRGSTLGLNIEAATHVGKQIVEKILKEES

B1: 16-bp dsRNA (dsRNA)
RNA 1: CCAUCCUCUACAGGCG
RNA 2: CGCCUGUAGAGGAUGG
On to B1, for which the Kd in data set [1] (label: FAM (sense and antisense)) is approximately 0.04 µM.

In the case of CCAUCCUCUACAGGCG (ssRNA) [16-nt sense ssRNA], in data set [1] (label: 5' FAM), the Kd is approximately 0.5 µM.

B2: 33-bp dsRNA (dsRNA)
RNA 1: CGAGCUCGCCCGGGGAUCCUCUAGAGUCGACCUGC
RNA 2: CUGCAGGUCGACUCUAGAGGAUCCCCGGGCGAGCU
B2: the binding result in data set [2] is “binds”.
